In PMC8708666 (2021) one finds Kd data, which are given here for seven molecules.

The term Kd denotes the constant that tells how readily two partners part at equilibrium. Read a low Kd as tighter binding.

For this assay, the target named is Integrin alpha1beta1 (Homo sapiens, UniProt P56199). Kind of assay: MST.
Sequence of Integrin alpha1beta1 (P56199 29-1141, chain 1 of 2): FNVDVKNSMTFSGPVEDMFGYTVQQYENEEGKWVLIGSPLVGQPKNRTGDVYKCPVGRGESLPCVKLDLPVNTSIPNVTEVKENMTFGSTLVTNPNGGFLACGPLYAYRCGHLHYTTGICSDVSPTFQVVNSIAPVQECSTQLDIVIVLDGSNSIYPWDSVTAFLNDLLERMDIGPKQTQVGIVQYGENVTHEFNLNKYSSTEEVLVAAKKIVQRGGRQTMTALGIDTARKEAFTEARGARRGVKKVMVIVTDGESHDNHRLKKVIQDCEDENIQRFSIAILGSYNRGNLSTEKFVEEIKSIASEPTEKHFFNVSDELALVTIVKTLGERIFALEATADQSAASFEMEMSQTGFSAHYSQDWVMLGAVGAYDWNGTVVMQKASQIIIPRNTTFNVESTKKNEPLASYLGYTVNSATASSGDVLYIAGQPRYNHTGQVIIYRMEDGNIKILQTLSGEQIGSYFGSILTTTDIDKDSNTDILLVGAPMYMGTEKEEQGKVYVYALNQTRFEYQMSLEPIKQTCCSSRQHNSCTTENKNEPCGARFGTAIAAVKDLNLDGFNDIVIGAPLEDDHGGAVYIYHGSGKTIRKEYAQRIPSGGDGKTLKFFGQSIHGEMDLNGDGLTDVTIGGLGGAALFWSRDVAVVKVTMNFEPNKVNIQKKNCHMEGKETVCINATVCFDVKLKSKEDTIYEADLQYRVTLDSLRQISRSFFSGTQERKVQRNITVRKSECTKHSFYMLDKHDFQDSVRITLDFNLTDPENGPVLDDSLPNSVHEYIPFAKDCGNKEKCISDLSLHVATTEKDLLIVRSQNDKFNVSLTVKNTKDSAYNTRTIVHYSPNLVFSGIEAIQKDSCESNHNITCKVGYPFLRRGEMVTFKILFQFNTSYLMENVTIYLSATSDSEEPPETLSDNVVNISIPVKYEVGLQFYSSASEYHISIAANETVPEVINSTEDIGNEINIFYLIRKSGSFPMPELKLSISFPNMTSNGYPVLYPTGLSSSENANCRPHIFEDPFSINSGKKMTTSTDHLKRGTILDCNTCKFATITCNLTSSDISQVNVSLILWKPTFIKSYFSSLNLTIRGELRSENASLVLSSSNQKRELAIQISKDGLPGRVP
Sequence of Integrin alpha1beta1 (chain, as listed by the source, chain 2 of 2): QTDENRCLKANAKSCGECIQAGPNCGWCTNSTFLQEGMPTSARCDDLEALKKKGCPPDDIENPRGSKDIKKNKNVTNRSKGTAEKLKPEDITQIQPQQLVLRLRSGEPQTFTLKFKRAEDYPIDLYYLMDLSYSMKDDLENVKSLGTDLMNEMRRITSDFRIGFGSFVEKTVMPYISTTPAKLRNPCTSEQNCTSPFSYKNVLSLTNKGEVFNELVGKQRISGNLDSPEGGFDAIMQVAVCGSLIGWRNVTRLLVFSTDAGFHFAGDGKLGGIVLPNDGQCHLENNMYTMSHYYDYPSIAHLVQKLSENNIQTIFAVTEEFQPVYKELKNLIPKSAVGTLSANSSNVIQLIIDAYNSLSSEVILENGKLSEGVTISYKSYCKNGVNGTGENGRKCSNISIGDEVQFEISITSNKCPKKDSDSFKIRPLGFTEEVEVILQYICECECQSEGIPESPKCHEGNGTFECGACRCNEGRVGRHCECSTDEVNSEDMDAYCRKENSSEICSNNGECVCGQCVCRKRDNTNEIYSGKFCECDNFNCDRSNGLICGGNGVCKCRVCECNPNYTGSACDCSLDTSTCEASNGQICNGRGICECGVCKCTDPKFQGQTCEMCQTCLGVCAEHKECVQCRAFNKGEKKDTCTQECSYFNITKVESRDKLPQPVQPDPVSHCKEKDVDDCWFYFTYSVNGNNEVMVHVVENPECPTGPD

Molecule LAPGSFKGMK [Collagen alpha-6(IV) chain peptide 4] came in with a dissociation constant (Kd) of 59.2 µM.

As to GFQGEKGVKG [Collagen alpha-6(IV) chain peptide 5], the affinity, expressed as Kd, was 790 µM. The same measure for KGARGDRGSG [Collagen alpha-6(IV) chain peptide 10]: 47.3 µM; for FKGTKGRDGL [Collagen alpha-6(IV) chain peptide 25]: 351 µM; for NKESGFPGLR [Collagen alpha-6(IV) chain peptide 8]: 1470 µM.

Molecule GPPGSIVKKG [Collagen alpha-6(IV) chain peptide 19] had a Kd of 2190 µM. The molecule DPGFPGMKGK [Collagen alpha-6(IV) chain peptide 30] yielded a Kd of 19.7 µM.
